Publication PMC7873233

What was measured:
[1] = target: 16055 SOSIP.v5.2 (HIV-1 (clade C isolate 16055)); assay: negative-stain EM; PGT145-purified protein, 20-50 ug/mL on carbon-coated Cu grids, 2% uranyl formate, 2D class averages; gp120-gp41 protomers to trimer
[2] = target: 16055 SOSIP.v8.3 (HIV-1 (clade C isolate 16055)); assay: as above

16055 SOSIP.v5.2 (complex)
percent native-like trimers [1]: 72% | stoichiometry N [1]: 3

16055 SOSIP.v8.3 (complex)
percent native-like trimers [2]: > 95% | stoichiometry N [2]: 3
